Laboratory results from patent publication US20260159579A1 (Pfizer, published 2026).
Positions count from the first letter of the chain named. “And” between values parts separate entries of the source, which are not always exact repeats. Equal values may be shown once. Read-outs that look alike come from different tables or passages of the source.

Experiments:
[1] = target: T1, Mouse Fc-human GDF15 (Mu IgG1Fc_Fxa_Hu GDF15) (human); experiment: SPR BIAcore T200, 37C; Fc-GDF15 captured, IgG as analyte; average of runs
T1 construct: Whole entry is the fusion: mouse IgG1 Fc, FXa site and linker, mature human GDF15; described as dimeric; also called Murine dimeric IgG1 Fc-human GDF-15 with FXa cleavage site; control human GDF15
T1 chain: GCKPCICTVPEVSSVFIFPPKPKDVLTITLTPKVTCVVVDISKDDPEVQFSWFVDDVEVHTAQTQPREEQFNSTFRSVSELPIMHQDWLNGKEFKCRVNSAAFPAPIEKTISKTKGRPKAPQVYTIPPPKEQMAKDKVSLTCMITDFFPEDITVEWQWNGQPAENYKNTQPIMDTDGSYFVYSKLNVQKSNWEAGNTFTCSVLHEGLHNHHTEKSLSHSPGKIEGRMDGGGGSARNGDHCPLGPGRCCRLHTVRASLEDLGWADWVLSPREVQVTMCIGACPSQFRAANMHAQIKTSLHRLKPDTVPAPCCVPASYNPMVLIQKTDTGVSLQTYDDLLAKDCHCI
Protocol: (§1) Mouse Fc-human GDF15 (Mu IgG1Fc_Fxa_Hu GDF15; SEQ ID NO:2), Mouse Fc-mouse GDF15 (Mu IgG1Fc_Fxa_Mu GDF15; SEQ ID NO:5) and Mouse Fc-cynomolgus monkey GDF15 (Mu IgG1Fc_Fxa_Cyno GDF15; SEQ ID NO:4) were captured onto three different flow cells of a CM4 sensorchip (catalogue number BR100534, GE Healthcare) surface using the Mouse Antibody Capture Kit (BR100838, GE Healthcare) according to the manufacturer's protocol. The running and sample bufferwas 10 mM HEPES pH 7.4, 0.15M NaCl, 3 mM EDTA, 0.05% P-20 (HBS-EP+). The final capture levels of Mu IgG1Fc_Fxa_Hu GDF15, Mu IgG1Fc_Fxa_Mu GDF15 and Mu IgG1Fc_Fxa_Cyno GDF15 were 40 resonance units (RU), 32 RU and 25 RU respectively. Flow cell 1 was used as a reference flow cell. […] The dissociation was monitored for 2.8 hours and the surface was regenerated with 10 mM Glycine pH 1.7. Binding affinities and rate constants were determined for murine and cynomolgus monkey GDF15 by fitting the resulting sensorgram data to a 1:1 Langmuir model in BIAcore T200 Evaluation software version 2.0 (GE Healthcare).
(§2) Additionally, the binding of clone GDF15_001 to cynomolgus monkey and mouse GDF15 was measured using above mentioned BIAcore assay (Table 7).

[2] = target: Mouse Fc-mouse GDF15 (Mu IgG1Fc_Fxa_Mu GDF15) (mouse); experiment: as above
[3] = target: T1, Mouse Fc-human GDF15 (Mu IgG1Fc_Fxa_Hu …); experiment: SPR BIAcore T200, 37C; Fc-GDF15 captured, IgG as analyte; apparent KD
[4] = target: T1, Mouse Fc-human GDF15 (Mu IgG1Fc_Fxa_Hu …); experiment: SPR BIAcore T200, 37C; Fc-GDF15 captured, IgG as analyte; average of runs; apparent KD
[5] = target: T1, Mouse Fc-human GDF15 (Mu IgG1Fc_Fxa_Hu …); experiment: SPR BIAcore T200, 37C; Fc-GDF15 captured, IgG as analyte; average of runs
Protocol: as §1, §2

[6] = target: T2, Mouse Fc-cynomolgus monkey GDF15 (Mu IgG1Fc_Fxa_Cyno GDF15) (cynomolgus monkey); experiment: as above
T2 construct: Whole entry is the fusion: mouse IgG1 Fc, FXa site and linker, cynomolgus GDF15; described as dimeric; also called Murine dimeric IgG1 Fc-cyno GDF-15 with FXa cleavage site
T2 chain: T1 chain with H239R, R254H, A287E, T296M, S297N, I345V
Protocol: as §1, §2

[7] = target: T1, Mouse Fc-human GDF15 (Mu IgG1Fc_Fxa_Hu …); experiment: SPR BIAcore T200, 37C; Fc-GDF15 captured, IgG as analyte
Protocol: as §1, §2

[8] = target: T1, Mouse Fc-human GDF15 (Mu IgG1Fc_Fxa_Hu …); experiment: as above
Protocol: as §1, §2

[9] = target: T2, Mouse Fc-cynomolgus monkey GDF15 (Mu …); experiment: as above
Protocol: as §1, §2

[10] = target: Mouse Fc-mouse GDF15 (Mu IgG1Fc_Fxa_Mu GDF15) (mouse); experiment: as above

Kd [1]: < 0.01 nM | koff [1]: 6.75e-06 s⁻¹ | kon [1]: 1.97e+06 M⁻¹ s⁻¹ | Kd [2]: 0.142 nM | koff [2]: 0.000356 s⁻¹ | kon [2]: 2.51e+06 M⁻¹ s⁻¹ | Kd [3]: < 0.01 nM | Kd [4]: < 0.01 nM | koff [5]: 6.75e-06 s⁻¹ | kon [5]: 1.97e+06 M⁻¹ s⁻¹ | Kd [6]: 0.00828 nM | koff [6]: 1.19e-05 s⁻¹ | kon [6]: 1.48e+06 M⁻¹ s⁻¹ | Kd [7]: < 0.01 nM | T½ min [7]: 40.3 h and 20.9 h and 30.8 h | koff [7]: 4.78e-06 s⁻¹ and 9.22e-06 s⁻¹ and 6.25e-06 s⁻¹ | kon [7]: 1.69e+06 M⁻¹ s⁻¹ and 2.18e+06 M⁻¹ s⁻¹ and 2.03e+06 M⁻¹ s⁻¹ | T½ min [8]: 20.9 h and 30.8 h and 40.3 h | koff [8]: 9.22e-06 s⁻¹ and 6.25e-06 s⁻¹ and 4.78e-06 s⁻¹ | kon [8]: 1.69e+06 M⁻¹ s⁻¹ and 2.03e+06 M⁻¹ s⁻¹ and 2.18e+06 M⁻¹ s⁻¹ | Kd [9]: 0.00886 nM and 0.00671 nM and 0.00926 nM | T½ min [9]: 14.8 h and 15.5 h and 18.7 h | koff [9]: 1.3e-05 s⁻¹ and 1.24e-05 s⁻¹ and 1.03e-05 s⁻¹ | kon [9]: 1.47e+06 M⁻¹ s⁻¹ and 1.85e+06 M⁻¹ s⁻¹ and 1.12e+06 M⁻¹ s⁻¹ | Kd [10]: 0.114 nM and 0.175 nM and 0.138 nM | T½ min [10]: 0.66 h and 0.447 h and 0.555 h | koff [10]: 0.000292 s⁻¹ and 0.000431 s⁻¹ and 0.000347 s⁻¹ | kon [10]: 2.6e+06 M⁻¹ s⁻¹ and 2.5e+06 M⁻¹ s⁻¹ (2×)
B1: GDF15_001 (antibody, human IgG1, kappa, V domains shown)
VH: QVQLVQSGAEVKKPGSSVKVSCKASGYTFSSYNIDWVRQAPGQGLEWMGGINPIFGTAFYNQKFQGRVTITADESTSTAYMELSSLRSEDTAVYYCAREAITTVGAMDHWGQGTLVTVSS
VL: EIVLTQSPATLSLSPGERATLSCRTSQSVHNYLAWYQQKPGQAPRLLIYDASTRADGIPARFSGSGSGTDFTLTISSLEPEDFAVYYCQQFWSWPWTFGQGTKVEIKR
notes: Tested in bivalent format; IgG1 heavy chain, kappa light chain; also called ponsegromab; PF-06946860
